Assay results reported in the Immune Epitope Database (IEDB).
Blank lines part the entries; values can stand above or below the sequence they belong to.

Assays:
HLA-C*07:02 = experiment: IEDB peptide-MHC binding, purified MHC/direct/fluorescence; filed as Kd, often an IC50 or EC50 that approximates it; ≥ and ≤ were set here for values at or beyond the usual limits of such assays
HLA-A*02:03 = experiment: IEDB peptide-MHC binding, purified MHC/competitive/fluorescence; filed as Kd, often an IC50 or EC50 that approximates it; ≥ and ≤ were set here for values at or beyond the usual limits of such assays
HLA-A*02:06 = experiment: as above
HLA-A*26:02 = experiment: as above
HLA-A*26:03 = experiment: as above; conditions: source organism: Homo sapiens
HLA-A*30:01 = experiment: as above; conditions: source organism: Homo sapiens
HLA-B*08:01 = experiment: as above; conditions: source organism: Homo sapiens
HLA-B*15:01 [1] = experiment: as above; conditions: source organism: Homo sapiens
HLA-B*18:01 = experiment: as above; conditions: source organism: Homo sapiens
HLA-B*39:01 = experiment: as above; conditions: source organism: Homo sapiens
HLA-A*01:01 = experiment: IEDB peptide-MHC binding, purified MHC/competitive/fluorescence; ≥ and ≤ were set here for values at or beyond the usual limits of such assays; conditions: source organism: Vaccinia virus WR
HLA-A*02:01 [2] = experiment: as above; conditions: source organism: Vaccinia virus WR
HLA-A*03:01 = experiment: as above; conditions: source organism: Vaccinia virus WR
HLA-A*11:01 = experiment: as above; conditions: source organism: Vaccinia virus WR
HLA-A*24:02 [3] = experiment: as above; conditions: source organism: Vaccinia virus WR
HLA-B*15:01 [4] = experiment: as above; conditions: source organism: Vaccinia virus WR
HLA-A*02:01 [5] = experiment: IEDB peptide-MHC binding, purified MHC/competitive/fluorescence; filed as Kd, often an IC50 or EC50 that approximates it; ≥ and ≤ were set here for values at or beyond the usual limits of such assays; conditions: source organism: Human immunodeficiency virus 1
HLA-B*15:17 = experiment: as above; conditions: source organism: Human immunodeficiency virus 1
HLA-B*35:01 = experiment: as above; conditions: source organism: Human immunodeficiency virus 1
HLA-A*68:23 = experiment: as above; conditions: source organism: Mycobacterium tuberculosis variant bovis BCG str. Pasteur 1173P2
HLA-B*15:42 = experiment: as above
HLA-B*45:06 = experiment: as above
HLA-B*83:01 = experiment: as above
HLA-C*04:01 = experiment: as above
HLA-C*06:02 [6] = experiment: as above; conditions: source organism: Mycobacterium tuberculosis variant bovis BCG str. Pasteur 1173P2
HLA-C*14:02 = experiment: as above
HLA-B*40:02 = experiment: IEDB peptide-MHC binding, cellular MHC/competitive/fluorescence; ≥ and ≤ were set here for values at or beyond the usual limits of such assays; conditions: source organism: Homo sapiens
HLA-A*24:02 [7] = experiment: as above; conditions: source organism: Human herpesvirus 5 strain AD169
HLA-A*03:19 = experiment: IEDB peptide-MHC binding, purified MHC/competitive/fluorescence; filed as Kd, often an IC50 or EC50 that approximates it; ≥ and ≤ were set here for values at or beyond the usual limits of such assays; conditions: source organism: human gammaherpesvirus 4
HLA-C*03:03 = experiment: IEDB peptide-MHC binding, purified MHC/direct/fluorescence; filed as Kd, often an IC50 or EC50 that approximates it; ≥ and ≤ were set here for values at or beyond the usual limits of such assays; conditions: source organism: Giardia lamblia ATCC 50803
HLA-C*05:01 = experiment: as above; conditions: source organism: Giardia lamblia ATCC 50803
HLA-C*06:02 [8] = experiment: as above; conditions: source organism: Giardia lamblia ATCC 50803
HLA-C*08:02 = experiment: as above; conditions: source organism: Giardia lamblia ATCC 50803
HLA-C*12:03 = experiment: as above; conditions: source organism: Giardia lamblia ATCC 50803
HLA-C*15:02 = experiment: as above; conditions: source organism: Giardia lamblia ATCC 50803
HLA-B*27:20 = experiment: IEDB peptide-MHC binding, purified MHC/competitive/fluorescence; filed as Kd, often an IC50 or EC50 that approximates it; ≥ and ≤ were set here for values at or beyond the usual limits of such assays; conditions: source organism: Giardia lamblia ATCC 50803
HLA-B*46:01 = experiment: as above; conditions: source organism: Giardia lamblia ATCC 50803
[9] = source organism: Human immunodeficiency virus 1
[10] = source organism: Mycobacterium tuberculosis variant bovis BCG str. Pasteur 1173P2
[11] = source organism: human gammaherpesvirus 4
[12] = source organism: Giardia lamblia ATCC 50803

Kd (HLA-C*07:02; source organism: Homo sapiens): ≤ 1 nM
Kd (HLA-A*02:03; source organism: Homo sapiens): ≥ 20000 nM
Kd (HLA-A*02:06; source organism: Homo sapiens): ≥ 20000 nM
Kd (HLA-A*26:02; source organism: Homo sapiens): ≥ 20000 nM
Kd (HLA-A*26:03): ≥ 20000 nM
Kd (HLA-A*30:01): 4080 nM
Kd (HLA-B*08:01): ≥ 20000 nM
Kd (HLA-B*15:01 [1]): 315 nM
Kd (HLA-B*18:01): 477 nM
Kd (HLA-B*39:01): ≥ 20000 nM
Sequence: FRHSVVVPY

Sequence: ITCKAFGLY
IC50 (HLA-A*01:01): 1550 nM
IC50 (HLA-A*02:01 [2]): ≥ 173000 nM
IC50 (HLA-A*03:01): 15400 nM
IC50 (HLA-A*11:01): 2820 nM
IC50 (HLA-A*24:02 [3]): ≥ 85100 nM
IC50 (HLA-B*15:01 [4]): 14000 nM

Sequence: LYNTIAVLY
Kd (HLA-C*07:02; [9]): 2130 nM
Kd (HLA-A*02:01 [5]): 2320 nM
Kd (HLA-A*02:03; [9]): 721 nM
Kd (HLA-A*02:06; [9]): 759 nM
Kd (HLA-A*26:02; [9]): ≥ 20000 nM
Kd (HLA-B*15:17): ≥ 20000 nM
Kd (HLA-B*35:01): 1870 nM

Sequence: MAAVRTTAL
Kd (HLA-A*68:23): 5.5 nM
Kd (HLA-B*15:42; [10]): ≥ 5000 nM
Kd (HLA-B*45:06; [10]): ≥ 5000 nM
Kd (HLA-B*83:01; [10]): 508 nM
Kd (HLA-C*04:01; [10]): ≥ 20000 nM
Kd (HLA-C*06:02 [6]): 104 nM
Kd (HLA-C*14:02; [10]): 14.4 nM

IC50 (HLA-B*40:02): 1800 nM
Sequence: SSYGNIRAV

Sequence: VYALPLKML
IC50 (HLA-A*24:02 [7]): 7500 nM

Sequence: WPTPKTHPV
Kd (HLA-A*03:19): 1080 nM
Kd (HLA-B*15:42; [11]): ≥ 5000 nM
Kd (HLA-B*45:06; [11]): ≥ 5000 nM
Kd (HLA-B*83:01; [11]): 3470 nM
Kd (HLA-C*14:02; [11]): 142 nM

Sequence: YMRERFEPM
Kd (HLA-C*03:03): 452 nM
Kd (HLA-C*05:01): ≥ 20000 nM
Kd (HLA-C*06:02 [8]): 22 nM
Kd (HLA-C*08:02): ≥ 20000 nM
Kd (HLA-C*12:03): 38 nM
Kd (HLA-C*15:02): 70 nM
Kd (HLA-B*15:42; [12]): ≥ 5000 nM
Kd (HLA-B*27:20): 0.5 nM
Kd (HLA-B*45:06; [12]): ≥ 5000 nM
Kd (HLA-B*46:01): 21.8 nM
Kd (HLA-B*83:01; [12]): ≥ 5000 nM
Kd (HLA-C*04:01; [12]): ≥ 5000 nM
Kd (HLA-C*14:02; [12]): 0.3 nM
